Source: US20250115926A1, “DEREGULATED DHS AND TYRA ENZYMES OF GRASSES ENABLE EFFICIENT PRODUCTION OF BOTH TYROSINE AND PHENYLALANINE” (priority 2023, published 2025)

Columns and labels:
C=C(OP(=O)(O)O)C(=O)O = assay: purified protein, by the assay type; settings: other: 2 mM E4P, 37° C., pH 7.5
[1] = system: O=C[C@H](O)[C@H](O)COP(=O)(O)O; assay: DHS activity: kinetics and effector inhibition; format: biochemical, Brachypodium distachyon; settings: other: 1.5 mM PEP, 37° C., pH 7.5
Method: (§1) To examine their functional properties, the recombinant DHS enzymes of Brachypodium were produced and characterized in vitro.
(§2) All DHS effectors tested were included in the initial reaction mixtures at a concentration of 0.5 mM, except for IC50 determination for arogenate and tryptophan, in which variable concentrations were used. To ensure at least 10 minutes of linear reaction, enzyme mass per reaction was carefully adjusted to between 100 to 300 ng (depending on the specific activity of each specific isoform) using DHS storage buffer supplemented with BSA. […] The enzymatic reaction was started with the addition of E4P (variable concentration, see below).
(§3) The DHS assay for UHPLC-MS quantification was set up using the same settings as described in the previous paragraph for the UV-based DHS assay, which guaranteed at least 10 minutes of reaction linearity. After a 10-minute incubation, 20 μL of the reactions (out of a total volume of 50 μL) were mixed into 80 μL of methanol, vortexed and transferred to vials for injection. Analysis of DAHP by UHPLC-MS was conducted using the same chromatographic settings as described for the UHPLC-MS analysis of soluble metabolites and compared with an authentic DAHP standard (Sta. Cruz biotechnology, cat. no. sc-216432).

[2] = system: O=C[C@H](O)[C@H](O)COP(=O)(O)O; assay: purified protein, by the assay type; settings: other: 1.5 mM PEP, 37° C., pH 7.5
Method: as §1, §2, §3

Chain of Brachypodium distachyon BdDHS2, SEQ ID NO: 5, recombinant (Brachypodium distachyon) (chain, as listed by the source): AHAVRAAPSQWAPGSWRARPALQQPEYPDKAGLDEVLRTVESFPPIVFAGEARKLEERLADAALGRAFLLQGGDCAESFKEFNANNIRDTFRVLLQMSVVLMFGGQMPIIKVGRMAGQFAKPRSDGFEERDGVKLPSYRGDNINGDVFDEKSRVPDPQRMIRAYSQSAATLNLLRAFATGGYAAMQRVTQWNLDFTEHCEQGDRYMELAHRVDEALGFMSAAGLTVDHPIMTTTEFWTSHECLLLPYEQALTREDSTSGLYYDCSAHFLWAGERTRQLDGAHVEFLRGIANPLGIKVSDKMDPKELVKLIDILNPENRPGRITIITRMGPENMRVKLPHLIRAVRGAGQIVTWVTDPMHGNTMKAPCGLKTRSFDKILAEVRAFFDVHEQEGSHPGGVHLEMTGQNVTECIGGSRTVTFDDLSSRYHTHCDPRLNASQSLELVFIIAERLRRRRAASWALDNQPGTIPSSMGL
Chain of Brachypodium distachyon BdDHS1a, SEQ ID NO: 1, recombinant (Brachypodium distachyon) (chain, as listed by the source): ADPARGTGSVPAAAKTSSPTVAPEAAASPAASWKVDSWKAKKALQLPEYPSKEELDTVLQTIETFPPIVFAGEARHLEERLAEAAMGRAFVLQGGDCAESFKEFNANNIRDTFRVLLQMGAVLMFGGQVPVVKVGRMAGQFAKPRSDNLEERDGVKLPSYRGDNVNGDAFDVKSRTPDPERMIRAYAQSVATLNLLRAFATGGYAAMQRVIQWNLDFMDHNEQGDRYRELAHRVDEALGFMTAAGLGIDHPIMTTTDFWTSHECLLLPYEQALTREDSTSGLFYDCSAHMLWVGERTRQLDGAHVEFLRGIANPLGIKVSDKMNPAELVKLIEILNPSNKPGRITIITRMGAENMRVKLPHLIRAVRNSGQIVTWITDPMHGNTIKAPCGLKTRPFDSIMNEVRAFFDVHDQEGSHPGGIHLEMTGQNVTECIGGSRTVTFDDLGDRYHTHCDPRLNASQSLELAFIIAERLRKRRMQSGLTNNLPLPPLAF
Chain of Brachypodium distachyon BdDHS1b, SEQ ID NO: 3, recombinant (Brachypodium distachyon) (chain, as listed by the source): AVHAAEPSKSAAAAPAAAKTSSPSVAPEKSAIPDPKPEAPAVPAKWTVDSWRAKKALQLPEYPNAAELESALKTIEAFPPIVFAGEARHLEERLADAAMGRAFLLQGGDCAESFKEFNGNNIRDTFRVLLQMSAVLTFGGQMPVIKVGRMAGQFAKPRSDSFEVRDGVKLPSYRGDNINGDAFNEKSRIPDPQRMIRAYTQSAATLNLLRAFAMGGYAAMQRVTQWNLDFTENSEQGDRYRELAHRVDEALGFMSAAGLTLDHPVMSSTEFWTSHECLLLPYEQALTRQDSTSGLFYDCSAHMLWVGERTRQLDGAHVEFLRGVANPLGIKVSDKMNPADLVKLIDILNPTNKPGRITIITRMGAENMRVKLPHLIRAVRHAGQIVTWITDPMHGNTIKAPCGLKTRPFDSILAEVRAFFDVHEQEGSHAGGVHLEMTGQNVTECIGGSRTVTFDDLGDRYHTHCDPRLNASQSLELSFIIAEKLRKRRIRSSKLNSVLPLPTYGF

**Q.** Which Km (C=C(OP(=O)(O)O)C(=O)O) does the source give for “Brachypodium distachyon BdDHS2, SEQ ID NO: 5, recombinant (Brachypodium distachyon)” here?
**A.** 190 µM

**Q.** And the kcat (C=C(OP(=O)(O)O)C(=O)O)?
**A.** 5.6 s⁻¹

**Q.** And the kcat/Km (C=C(OP(=O)(O)O)C(=O)O)?
**A.** 29000 M⁻¹ s⁻¹

**Q.** What about the K0.5 [1] of the same substance?
**A.** 0.51 mM

**Q.** And the kcat [1]?
**A.** 5.6 s⁻¹

**Q.** Which Km (C=C(OP(=O)(O)O)C(=O)O) does the source give for “Brachypodium distachyon BdDHS1b, SEQ ID NO: 3, recombinant (Brachypodium distachyon)” here?
**A.** 200 µM

**Q.** And the kcat (C=C(OP(=O)(O)O)C(=O)O)?
**A.** 11.3 s⁻¹

**Q.** What about the kcat/Km (C=C(OP(=O)(O)O)C(=O)O) of the same substance?
**A.** 57200 M⁻¹ s⁻¹

**Q.** What does the source list for “Brachypodium distachyon BdDHS1a, SEQ ID NO: 1, recombinant (Brachypodium distachyon)”?
**A.** Km (C=C(OP(=O)(O)O)C(=O)O): 130 µM; kcat (C=C(OP(=O)(O)O)C(=O)O): 17 s⁻¹; kcat/Km (C=C(OP(=O)(O)O)C(=O)O): 126000 M⁻¹ s⁻¹; K0.5 [2]: 0.55 mM; kcat [2]: 17 s⁻¹
